Paper PMC3292583, “Poplar GTL1 Is a Ca2+/Calmodulin-Binding Transcription Factor that Functions in Plant Water Use Efficiency and Drought Tolerance”

T1: PtaGTL1-C (C-terminal trihelix DNA-binding fragment) (Populus tremula x P. alba (clone …, UniProt G8G9Q9 528-779))
T1 sequence: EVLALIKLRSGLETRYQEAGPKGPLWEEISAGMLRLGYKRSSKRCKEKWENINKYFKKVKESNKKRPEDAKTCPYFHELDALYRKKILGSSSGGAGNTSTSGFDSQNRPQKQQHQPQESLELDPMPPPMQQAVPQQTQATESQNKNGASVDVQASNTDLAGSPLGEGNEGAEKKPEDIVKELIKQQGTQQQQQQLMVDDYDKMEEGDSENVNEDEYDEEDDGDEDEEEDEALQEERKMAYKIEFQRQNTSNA

B1: AtSDD1 promoter fragment with GT3 box (dsDNA)
DNA 1: TTCTTTGGCTTGGTAAAACTTCAATGGA
DNA 2: TCCATTGAAGTTTTACCAAGCCAAAGAA
B2: AtSDD1m (GT3 box GGTAAA to CCTAAA) (dsDNA)
DNA 1: TTCTTTGGCTTCCTAAAACTTCAATGGA
DNA 2: TCCATTGAAGTTTTAGGAAGCCAAAGAA
B3: PtSDD1m (GT2 box GGTAAT to CCTAAT) (dsDNA)
DNA 1: TTCGTGAATATCCTAATGATTAT
DNA 2: ATAATCATTAGGATATTCACGAA

Experiments:
[1] = target: T1, PtaGTL1-C (C-terminal trihelix …); test: EMSA; LightShift Chemiluminescent EMSA kit, per cited earlier method; 200 ng biotin probe, 1000 ng competitor; binding buffer, salt, pH and temperature not stated (probes annealed in 10 mM Tris-HCl, 1 mM EDTA, pH 8.0); settings: protein: recombinant; tags: N-terminal 6xHis (pDEST17); label: 3' biotin (probe); blunt
[2] = target: T1, PtaGTL1-C (C-terminal trihelix …); test: EMSA; text: mutation inhibited the interaction; LightShift Chemiluminescent EMSA kit, per cited earlier method; 200 ng biotin probe, 1000 ng competitor; binding buffer, salt, pH and temperature not stated (probes annealed in 10 mM Tris-HCl, 1 mM EDTA, pH 8.0); settings: protein: recombinant; tags: N-terminal 6xHis (pDEST17); label: 3' biotin (probe); blunt

Row | Binder | binding result [1] | binding result [2]
1 | B1 | binds | –
2 | B2 | no binding | –
3 | B3 | – | no binding
